In publication PMC6453562:

Experiments:
Experiment in all cases: native gel or EMSA
[1] = biological target: B41 SOSIP.v4.1-His trimer (HIV-1 (B41))
[2] = biological target: BG505 SOSIP.664 trimer (HIV-1 (BG505)) (UniProt Q2N0S6)
[3] = biological target: BG505 SOSIP.664-His trimer (HIV-1 (BG505)) (UniProt Q2N0S6)

Substance: B41 SOSIP.v4.1-His trimer (complex)
- stoichiometry N [1]: 3

Substance: BG505 SOSIP.664 trimer (from UniProt Q2N0S6 1-860; Q2N0S6 1-860) (complex)
- stoichiometry N [2]: 3

Substance: BG505 SOSIP.664-His trimer (from UniProt Q2N0S6 1-860; Q2N0S6 1-860) (complex)
- stoichiometry N [3]: 3
